Results published in US8753698B2, “Anti-hypertensive functional food products” (Globus Egg Sciences B.V., priority 2004, dated 2014).

Biological target: Angiotensin-I Converting Enzyme (ACE) (Homo sapiens, UniProt P12821)
Experiment: Determination of ACE inhibitory activity of hydrolysates in a microtiter plate (Hip-His-Leu substrate)
Type: biochemical
Conditions: no digestion simulation, in %
Description: ACE inhibitory activity can be measured in vitro using a spectrophotometry based assay. The assay is based on the liberation of hippuric acid from Hip-His-Leu substrate catalyzed by ACE.
Calculation of Ace Inhibition:
[formula] 2.4 Further (Optimized) Hydrolysis of Ovomucin with Alcalase Protocol for the DH Determination by TNBS Method Solutions: • 0.21 M Sodium phosphate buffer pH8.2 • 0.21 M NaH2PO4.H2O (25 ml solution) • 0.21 M Na2HPO4.2H2O (500 ml solution) • mix solutions to pH 8.2 • 0.05% TNBS • Dilute TNBS stock (5% solution) to 0.05% in MQ cover reagent tube with aluminium foil and store in dark place • 1% SDS solution • Leucine standard (stock 3 mM Leucine) • Dissolve Leucine in 1% SDS solution. Dilute the stock solution 20×, 10×, 4× en 2× with 1% SDS for analysis • Blank • Dilute non-hydrolysed sample in 1% SDS to a protein concentration of 0.5 mg/ml • Samples • Dilute hydrolysed protein in 1% SDS to a concentration of 0.5 mg/ml in duplo Analysis: • Pipet 15 μl sample (Leucine standard or sample) in microwell. Measure each dilution in twofold in plate (Costar, non-binding plate) • Add 45 μl 0.21 M sodium phosphate buffer pH 8.2 • Add 45 μl 0.05% TNBS. Cover plate with aluminium foil. Incubate plate for 60 minutes in a 50° C. stove. • After incubation add 90 μl 0.1 N HCl • Measure absorption at 340 nm (microplate reader) Calculation of degree of hydrolysis (DH): • Make calibration line of Leucine standard. This calibration line is used to convert absorption values of samples to NH2-equivalents.

Chain of Angiotensin-I Converting Enzyme (ACE) (P12821 30-1306, species assumed): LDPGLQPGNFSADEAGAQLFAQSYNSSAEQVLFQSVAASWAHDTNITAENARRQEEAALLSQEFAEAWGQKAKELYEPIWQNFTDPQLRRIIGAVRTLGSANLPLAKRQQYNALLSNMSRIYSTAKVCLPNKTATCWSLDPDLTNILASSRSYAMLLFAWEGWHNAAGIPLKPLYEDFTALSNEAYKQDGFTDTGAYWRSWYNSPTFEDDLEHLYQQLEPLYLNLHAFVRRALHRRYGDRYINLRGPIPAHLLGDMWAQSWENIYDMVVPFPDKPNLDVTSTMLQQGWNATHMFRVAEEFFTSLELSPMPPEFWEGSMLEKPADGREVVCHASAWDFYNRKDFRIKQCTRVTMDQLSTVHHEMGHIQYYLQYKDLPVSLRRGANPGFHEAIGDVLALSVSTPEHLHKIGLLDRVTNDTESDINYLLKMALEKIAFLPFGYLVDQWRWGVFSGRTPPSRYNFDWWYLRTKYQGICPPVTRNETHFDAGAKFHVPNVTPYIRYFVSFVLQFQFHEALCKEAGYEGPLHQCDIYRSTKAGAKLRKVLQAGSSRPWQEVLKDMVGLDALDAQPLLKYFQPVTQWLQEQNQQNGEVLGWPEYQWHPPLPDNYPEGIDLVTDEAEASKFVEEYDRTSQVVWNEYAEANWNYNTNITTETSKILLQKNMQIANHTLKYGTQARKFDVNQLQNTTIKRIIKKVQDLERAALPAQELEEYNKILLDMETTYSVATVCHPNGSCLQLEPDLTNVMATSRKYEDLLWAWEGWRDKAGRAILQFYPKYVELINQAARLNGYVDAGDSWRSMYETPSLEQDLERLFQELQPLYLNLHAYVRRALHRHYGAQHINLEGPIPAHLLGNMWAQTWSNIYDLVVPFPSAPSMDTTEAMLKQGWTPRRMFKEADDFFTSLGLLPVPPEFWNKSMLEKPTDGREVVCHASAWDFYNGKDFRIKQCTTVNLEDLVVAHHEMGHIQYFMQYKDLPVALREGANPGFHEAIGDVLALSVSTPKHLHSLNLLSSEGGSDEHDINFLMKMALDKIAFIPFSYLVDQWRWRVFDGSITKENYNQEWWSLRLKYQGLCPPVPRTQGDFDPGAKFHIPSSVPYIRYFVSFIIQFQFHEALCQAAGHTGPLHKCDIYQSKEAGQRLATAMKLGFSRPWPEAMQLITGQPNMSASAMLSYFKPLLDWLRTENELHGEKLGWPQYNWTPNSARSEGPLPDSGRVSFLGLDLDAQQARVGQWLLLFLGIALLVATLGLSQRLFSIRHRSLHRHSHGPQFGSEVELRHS

B1: OT-UM: ovotransferrin, not pre-hydrolysed, nor in vitro digested (protein)
chain: APPKSVIRWCTISSPEEKKCNNLRDLTQQERISLTCVQKATYLDCIKAIANNEADAISLDGGQAFEAGLAPYKLKPIAAEVYEHTEGSTTSYYAVAVVKKGTEFTVNDLQGKTSCHTGLGRSAGWNIPIGTLLHRGAIEWEGIESGSVEQAVAKFFSASCVPGATIEQKLCRQCKGDPKTKCARNAPYSGYSGAFHCLKDGKGDVAFVKHTTVNENAPDQKDEYELLCLDGSRQPVDNYKTCNWARVAAHAVVARDDNKVEDIWSFLSKAQSDFGVDTKSDFHLFGPPGKKDPVLKDLLFKDSAIMLKRVPSLMDSQLYLGFEYYSAIQSMRKDQLTPSPRENRIQWCAVGKDEKSKCDRWSVVSNGDVECTVVDETKDCIIKIMKGEADAVALDGGLVYTAGVCGLVPVMAERYDDESQCSKTDERPASYFAVAVARKDSNVNWNNLKGKKSCHTAVGRTAGWVIPMGLIHNRTGTCNFDEYFSEGCAPGSPPNSRLCQLCQGSGGIPPEKCVASSHEKYFGYTGALRCLVEKGDVAFIQHSTVEENTGGKNKADWAKNLQMDDFELLCTDGRRANVMDYRECNLAEVPTHAVVVRPEKANKIRDLLERQEKRFGVNGSEKSKFMMFESQNKDLLFKDLTKCLFKVREGTTYKEFLGDKFYTVISSLKTCNPSDILQMCSFLEGK
conc. 0.019 mg/ml
  ACE inhibition: 0.7
conc. 0.056 mg/ml
  ACE inhibition: −4.1
conc. 0.167 mg/ml
  ACE inhibition: 0.7
conc. 0.500 mg/ml
  ACE inhibition: −0.3
